Values of other authors, collected in PMC12608641.

Molecular target: p55 (Homo sapiens) (UniProt Q9UHN1)
Assay: ultracentrifugation

For p55 (from UniProt Q9UHN1), the Kd is given as less than 0.1 nM.
